From publication PMC4405178 (Biochemistry, 2015)

How the values were obtained:
Assay in all cases: flow cytometry on cells
[1] = target: T1, C-terminally truncated Ste2p S104Y (Saccharomyces cerevisiae, UniProt D6VTK4 1-303, S104Y)
T1 sequence (looked up): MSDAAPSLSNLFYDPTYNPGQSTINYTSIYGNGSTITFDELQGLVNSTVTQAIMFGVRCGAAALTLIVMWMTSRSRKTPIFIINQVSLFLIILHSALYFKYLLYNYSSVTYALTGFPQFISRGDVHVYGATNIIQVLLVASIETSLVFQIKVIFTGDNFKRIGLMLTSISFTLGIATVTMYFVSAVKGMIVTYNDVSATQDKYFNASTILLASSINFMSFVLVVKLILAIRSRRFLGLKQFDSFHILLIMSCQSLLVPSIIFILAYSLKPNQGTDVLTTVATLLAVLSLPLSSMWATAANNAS

full-length Ste2p V49D = target: T2, full-length Ste2p V49D (Saccharomyces cerevisiae, UniProt D6VTK4 1-431, V49D)
T2 sequence (looked up): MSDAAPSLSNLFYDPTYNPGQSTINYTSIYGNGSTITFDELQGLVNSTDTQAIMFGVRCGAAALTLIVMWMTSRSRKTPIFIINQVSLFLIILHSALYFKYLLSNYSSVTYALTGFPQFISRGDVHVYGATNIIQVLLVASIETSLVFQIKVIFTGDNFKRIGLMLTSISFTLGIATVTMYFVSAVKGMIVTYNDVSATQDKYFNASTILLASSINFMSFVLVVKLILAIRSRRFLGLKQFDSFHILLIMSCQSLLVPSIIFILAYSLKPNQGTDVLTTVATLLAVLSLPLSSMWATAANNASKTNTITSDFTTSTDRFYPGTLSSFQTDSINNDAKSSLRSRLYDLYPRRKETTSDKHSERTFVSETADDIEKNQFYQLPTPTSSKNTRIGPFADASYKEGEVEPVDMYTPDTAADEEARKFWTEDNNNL

full-length Ste2p S95Y = target: T3, full-length Ste2p S95Y (Saccharomyces cerevisiae, UniProt D6VTK4 1-431, S95Y)
T3 sequence (looked up): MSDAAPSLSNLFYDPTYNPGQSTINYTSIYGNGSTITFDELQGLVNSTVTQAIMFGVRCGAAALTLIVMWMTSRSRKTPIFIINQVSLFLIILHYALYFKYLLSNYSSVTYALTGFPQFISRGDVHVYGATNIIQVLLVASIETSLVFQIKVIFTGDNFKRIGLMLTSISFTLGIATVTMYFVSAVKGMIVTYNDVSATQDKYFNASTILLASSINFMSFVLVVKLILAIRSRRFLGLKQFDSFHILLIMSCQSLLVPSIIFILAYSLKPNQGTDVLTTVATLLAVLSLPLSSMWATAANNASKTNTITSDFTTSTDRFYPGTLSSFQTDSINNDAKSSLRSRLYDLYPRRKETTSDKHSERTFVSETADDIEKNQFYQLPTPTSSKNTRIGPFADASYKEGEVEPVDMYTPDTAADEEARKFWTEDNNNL

full-length Ste2p L211R = target: T4, full-length Ste2p L211R (Saccharomyces cerevisiae, UniProt D6VTK4 1-431, L211R)
T4 sequence (looked up): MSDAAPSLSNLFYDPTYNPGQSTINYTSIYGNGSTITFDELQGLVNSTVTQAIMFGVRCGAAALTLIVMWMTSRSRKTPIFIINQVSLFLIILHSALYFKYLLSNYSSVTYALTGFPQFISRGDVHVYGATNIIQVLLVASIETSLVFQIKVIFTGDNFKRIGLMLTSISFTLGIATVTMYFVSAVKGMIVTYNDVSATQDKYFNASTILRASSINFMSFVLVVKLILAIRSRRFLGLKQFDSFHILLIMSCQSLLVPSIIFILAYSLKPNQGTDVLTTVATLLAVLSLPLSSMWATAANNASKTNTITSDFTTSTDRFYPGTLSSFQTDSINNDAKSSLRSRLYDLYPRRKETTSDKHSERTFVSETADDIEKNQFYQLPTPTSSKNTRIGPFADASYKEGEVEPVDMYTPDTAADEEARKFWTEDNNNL

[2] = target: T5, C-terminally truncated Ste2p S95Y (Saccharomyces cerevisiae, UniProt D6VTK4 1-303, S95Y)
T5 sequence (looked up): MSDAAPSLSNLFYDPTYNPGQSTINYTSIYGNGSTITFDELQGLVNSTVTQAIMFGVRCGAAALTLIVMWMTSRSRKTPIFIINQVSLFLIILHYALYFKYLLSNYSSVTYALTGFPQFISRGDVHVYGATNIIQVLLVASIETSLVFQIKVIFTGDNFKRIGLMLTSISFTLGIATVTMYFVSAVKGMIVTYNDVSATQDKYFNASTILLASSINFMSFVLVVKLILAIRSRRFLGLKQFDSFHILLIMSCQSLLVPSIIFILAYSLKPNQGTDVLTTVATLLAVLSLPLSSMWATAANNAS

- Kd [1]: 12 ± 3.4 nM
- Kd (full-length Ste2p V49D): 5.3 ± 2.3 nM
- Kd (full-length Ste2p S95Y): 2.1 ± 1.5 nM
- Kd (full-length Ste2p L211R): 0.8 ± 0.1 nM
- Kd [2]: 8.1 ± 7.5 nM
B1: [K^7(NBD),Nle^12] α-factor (peptide)
chain: WHWLQLKPGQPMY
modifications: NBD (7-nitrobenz-2-oxa-1,3-diazol-4-yl) conjugated to the lysine at position 7; norleucine at position 12 in place of methionine
